Laboratory results reported in the NTF2 design screens of Basanta et al. (2020).

Assay: protease stability score; higher = more stable; yeast display proteolysis, trypsin and chymotrypsin;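 also: relative to predicted unfolded state with 0 unfolded-like and 1 meaning tenfold more protease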

## DEEDRRYEHWFKLFLEIFLTGDFDQWKKLLDPHVRVDVNGQERVGRDQISEAMRRLLEILGVDHIEVEEVHLQGEKVNLNTQENVNGVETHSRIHVIVINGRLRHSKMDIN
  protease stability score: 1.29

## DEEDRYMKELLEELLKDFETGNWDRLISLLDPHMRIQAENVTLHGRETTSRWLQEITSRVKGLRLHIESEEIQGDKAIIDGINNVNGREIRTILFSVKVDGRWLIKSIIIL
  protease stability score: 1.28

## DEEEAHTRHILELFKHNYHTGDEDLFRRLLDPNVRLHIDGVNIHGREEVVEVLVKLAHEIRVELRVKHIRIINGVAEVDIELTIHQGDKHESRKIHLFILKVNGRWRVESIQWR
  protease stability score: 1.42

## DEEEDAKKFVLDVWRETLETGDEKLLLELIDPHVRIIIGDKEDHGRETLLHHFREIRFEDFQVRDIRVIGEKIHIHGEHLIRFDGRRVRLEIEIIMTKINGRWLVEEIRIR
  protease stability score: 2.58

## DEEEDDVRRLIERFQHNFDTGNWHMLEHLVDPHARINFDGVESHGMELIVHVNEHMRIHDTHIRDIRIDVVGDKVFVENIVRVESEINGQHRDVEMRISMVITKVNGRWLIKEIRIKIH
  protease stability score: 0.974

## DEEEDHERHLVERTIHSLETGDWHETHELLDPHVRIQIVQGDKSLDLHGREAAVKFFLDWLRRVPNMRLEFKRIEDYDGVSHIDGVLRIGDKEMRFEIEIHVFNGVVKRMHIRMH
  protease stability score: 1.38

## DEEEDHERRFLEELLRDWVTGDENKLDELFDPDARNYINGRRYHGREDVREVLKLLKDRIDHIEMTDIKDVKIQGDKMRFDTRVHLRQGDKTIRIKTHFVIWKVNGKWRMEAVVIV
  protease stability score: 1.02

## DEEEDKLRKFADHFWHLRLTGDFDIWEHLADPDTKENQGEYSNIGREHISEYNLRETRKFKNIRMHIRRKTIQGDKIKIDGVLIFNGVEIEVILILIVINGRIREVRVHIE
  protease stability score: 1.6

## DEEEDLQRHVADEFLHNLLTGNEHDIERLMDPNVKLIMDVNGVKLHFHGREQVLKLLREWRLDHWEVKRRHLVGDYAVLDGHQQGVIDGREVRTDSEIELRLYNGRMKEVTIRVR
  protease stability score: 1.47

## DEEEDRIMKMLRLIILEIVTGDEEKFRHLFDPDARFIVGNKTYHGWEMWHEEFRHIRITEMELEHYDVINGRAHLHTRLRGKINGREIDTETRLIVVVINGKIHSIELRIH
  protease stability score: 2.18

## DEEEDRLRRLAKTLLENWVTGDEEMHQRFADPNTRLNVDVDGKEIHRHGREEMLKDLRHELERVDHWELRLRDMKIFDGVVDIDGELILNINGKVIRQEVRIIMVIVNGRLRSVHFQVH
  protease stability score: 1.26

## DEEEDTARFLMELILHDLETGDEERLFRLMDPHTRLDIDGQQYHGRELVLQLHETLLERWGVERVEAFLRRTEIQGEKVLSDVHRHFNGVTVKTHIVLEKFNGRWSTKTLEYK
  protease stability score: 0.6

## DEEEDVMRKWLQLFLEAFETGDFRLIEEMFDPNTRLDVGDKEYHGRDEIARVIRTLWEEMRFEHFHIHRFDVFNGVANSDTHVVGKIGDKRRDVRVHIILIIVNGKLKKFRIETR
  protease stability score: 1.71

## DEEEEALEEVLRLLSKAILTGDEDQMRELVDPHVRVHVGDKDLIGWDRYKRHTKEMRIIIHRFELRDKRRVGNKLEFDGHMDYELIVNGRTWKHREDMFMVIVKVNGKWHIHYEQVD
  protease stability score: 0.88

## DEEEEALRLAFELIYTVLRTGDEEMWRRMADPDTKIDIGDKHFHGREHVEYVLRELHKRIDHIDHSHIDHVHVQGDKVHMDTTIVGTYDGQRTNLKTSFIVVKINGKWVMTSVRFR
  protease stability score: 1.38

## DEEEEATEKFFEKLLRSWKTGDEKSYEELLDPHARSDINGKIFHGRDKLSQMLHEFLKRVKGITIHDVKVHDSRLIDGRAILDGRVDMKVGDKRFELNREVVTLKVDGRWILESEIVK
  protease stability score: 0.767

## DEEEEDAERLLRELITWLYTGDFESLEKLMDPTTKLIQGDKTFIGREYLSKLFHDWGHTNVRAKLEDIKVVNGQVHIYGRLHYGDKTSETHFIVRKVNGKWLIKIVEFR
  protease stability score: 1.62

## DEEEEDAHRLMHNVVHALRTGDWEEFSRLLDPNVMVIIGDKLFIGRETVLEMIKRMLDDWGVTRIHLHIHSKHVQGNKLHVDSQIDVNGRTTRVHIDATKIDGRWLLKRIEIK
  protease stability score: 2.14

## DEEEEDFRMAEHFIRKSLKTGDERLREELMDPHVRIHQGDKHFHGREDASELHRQFDHIEHVHLKDFHFYNGRVIMHMHVLGHWDGRRTRFDTHVTATKIDGRWIVKEWTII
  protease stability score: 0.552

## DEEEEDIDFLIHLLVKTIKTGDEHIFRRLMDPHVRMHAEGRELHGREVVVERWAKIMRELRITHIEVTHKDVVDGQVELHMRIKFRVGDKEKETRVELHAEKIDGRWVIRSIHIL
  protease stability score: 1.75

## DEEEEDIEKFFKEWTRNVLTGNWERLRELADPHAKAVVDGVETHGMESLDKLIDESERKLGVDHTHLESVHVQGEWIHFHLRIIIGDKYLKLHIHTLVIDGRVKSMNVEFHSD
  protease stability score: 1.16

## DEEEEDIRRAVTRFIEVILTGDEHSLERLMDPHVKIDIGDKHLHGREAKDRLRDEMRRKFKNLRIHMRDWHLEIYDGVAHSTFDFELEINGKRTHLELRVDVRKVDGRWLIDSYEIKIR
  protease stability score: 1.15

## DEEEEDMKNMLRIWEETVETGDEHTKERFADPNMRLVVNGVSSHGMESFKTVIKWEHERYDHLKKIEIHRLEFFDGRVIIDGTFTGNIDGVEYKRRIILIMVKVDGRWLLEEVIIH
  protease stability score: 1.39

## DEEEEDSEDAVRFIMLALDTGDEKLLTSLADPNMRLDVNGREFHGREDFIHFLEEVRKKLGVDRIRTHVRETHVINGRVHVRGELRWNGRTHESHVHIIKIDGKWVIKSVHIR
  protease stability score: 2.11

## DEEEEDVRRAVEIWERSLRTGDEHEVKRFVDPHTRLEVDGREFHGREQFIEVMRHWRFRHFQIRDFRVIDGRADVDAISEVDYNGRRFEVKTIIIVIKINGRWVLHSLNIR
  protease stability score: 1.63

## DEEEEEAHTITEILVHDWRTGNEEHLVKLIDPNARINYNGVNLHGMKAVSIILHHIRYKDVSLHEVRVFDGQVEIILKIHVNINGQDETHHTHIVLSKVNGRWLIDTIKWE
  protease stability score: 1.28

## DEEEEEARIAVDMFRRTVETGDEELLRKMIDPHVRMHVGDKDLHGRDFAVEIFHKLGVDHFEIRHQRLIGDKVELDIKVNVNGKEMETHSHLEKVNGRWVIRSLDVR
  protease stability score: 1.25

## DEEEEEDKRMADEIVHSFLTGNEDWLHELADPNTRSEVGDKEAHGRENMVKLLRIHLRELGVDHIELTHVRVHSQGDKIIVIVHGKVKIGDKILELHIHIIVLKIDGRWLLHSVRIEIN
  protease stability score: 1.09

## DEEEEEDRHAAEITIKVLLTGDEKKLQELADPHTRFIIWIDGRELRYIGRRDLVRVWREIIRKLGIDHLSLDDMRVIDGKIHLHETMNVDGKNISRRIINNVINGVNKHIEVNLS
  protease stability score: 1.17

## DEEEEEHRIAHELFIKTSQTGDEQESTEMMDPNVRVTIGNKHFVGREEVSKFFKEIRIKRVRFKRIRHINGKAEMEMHMHGEVNGRERELEIHVYIFKINGRWVIEEVRFH
  protease stability score: 1.64

## DEEEEEILRVWEILIHLFVTGDEEKFSKMADPDYKWHQGDKSRIGRESMREHIKKFLEELRIKELHLHHTHVFDGRYEADVELRGHINGRESRIKSRIILEVYNGRVKLFIIDIR
  protease stability score: 0.559

## DEEEEELHRLSRLILHLLLTGDWEKLADLADPHMRFEMVVGDKNEEFHGRERWLKFLRMVREKFKGMRIHLQDERVYGDKNDLDIVLNVNGQRHKVHLHLVVVDGVIKEIKIKVE
  protease stability score: 2.18

## DEEEEELKQHLHEILHSIMTGDWRSLRHLIDPNVRLDIGDKTYHGREDFLTWVKHLIDKIPNVKFEIKHIRIVGEKVIMNIVVKINGVEHTRHLIADKIDGKWFISSTEVH
  protease stability score: 1.76

## DEEEEELRELARISLELWITGDEDHLRHLMDPRTLLIVDGQEVHGREEAIKWVAFHLLKIKGLTLELKDFDVINGRLHLHVTRRVNGVRRRLRIHIEIIDGRIKTIRITID
  protease stability score: 2.28

## DEEEEELRRLLEEIFRNRVTGDEERWLELADPDVRLEEHINGQEIHLHGREDVAEHIREARIHSTEVKDVKVINGVIHLDEKIDGIINGVRRDTRVIVHIVVINGRIKSIRVIVN
  protease stability score: 1.65

## DEEEEEMHRRARIFLELWMTGNEEVFNTLFDPNVRLHMNIGEKTHDFVGRETVHEVNRRWLEHIRIEDFKVREIRVQGDYATSDTRIVGIFDGRRIDIDVKIHILIVDGRLKEVELRFD
  protease stability score: 2.1

## DEEEEEMRKMIDEILKDQATGDEDRLKKLLDPNMRSEINGKDLHGREIVTETLAHLFRFLGIKHVHLNDYRIQGDKVEIYGELEINGQKHTNKIHAEKVNGKWVISEMRLH
  protease stability score: 1.43

## DEEEEERRRIAKELTHLWHTGDEDRLIEMADPNDRILIGDFDIHGWESAMRFLRYFRREFGVKHEEIKDIEIQGEKTHIHSHLKVGDKRHHVLVILVVINGRHKRIEIRIH
  protease stability score: 0.755

## DEEEEESHEATEMILYAHKTGDFDLWEKLADPHVRLDVNGVHVHGREEYVRIMRHIHKNWGVQRFHVEFHDLELQGEKVRVRLRSNFNGRHHTETIIIEKINGRWYLKTRRIT
  protease stability score: 1.42

## DEEEEESKQVAELIITLLTTGDEERFLELADPNVRHHQGDKELHGREDLHKTVEDWGWSKVDSRLEDVEVQGEFVIVRGKMIVNGRRVDVEYIVRKVDGRWYIHMVIYH
  protease stability score: 1.07

## DEEEEETHEYMRLLVRLFLTGDEEVFDRLADPNRRLKWNGREYHGREQTNRVWRELGVKHRRIEDIKMQGDKVVIEGTVHIGDKTLRTTVSFVIIDGRTKSIEIRDI
  protease stability score: 1.46

## DEEEEEVKKVFEMLEKSLETGDEKLWEHMADPNTRIDIGDKEIHGRESFHEIVKHIRIKDIRMRIHEWRTYDGRLDLRGQVELHLNINGKHLDITVEHRLIIVKINGRWLLEEETIV
  protease stability score: -0.109

## DEEEEEVRKLAHIHLHWLKTGDEEFEKKYADPHTKFRFNGRSSHGMEDFAEWVREIRIHDVIIRRVRVVNGVNEIDMEVDFEFDGKRIRSQTQILLFIYDGRIKSTEFTIR
  protease stability score: 0.805

## DEEEEEWERIARRLVKAWLTGDEDLLSFLADPHVRLHVGDKHNHGREHVERHWKEYLDRVKNVRIHVHHVEIQGEKIIIHVEVEINGRTFNMRVIIIVINGRIKEIVIHIH
  protease stability score: 0.635

## DEEEEFAKELIEEVTKTILTGDFRTFLELFDPNARLEFNGREIHGMEDWLKMMDELRREIWIHHNHNHRIEVQGDKAHTESRLDVSYNGQRYTLHSRLSIDVVDGRLKRLEYRTK
  protease stability score: 1.5

## DEEEEFATRIMKILLKALLTGDETTLKHLIDPHTRFIFVIGEKIVHVHGRDEIAKFWETLRREIRIEDITIDRIRVQGEKVETDGYIHIWIGDKLVDVESHDEWVIVNGRIKHIRMEIK
  protease stability score: 1.93

## DEEEEFLHTLLRIFVEALMTGDEELLKKLADPHTKVRFNGQERHGWHAIQWMIEFFKNVRIEIHDMHIQGDKVHIDGRLKQGDKKLEMRIIIVIVNGKVHNEEYDLR
  protease stability score: 1.12

## DEEEEFLRLILETLRHAAETGDWHILNRLLDPDARIVIGDKEIHGREKVQHEFRRIDHYQWHHIILDRVHIYDGRIELHGQVEEELNVDGQRIRRLTDTHFVIVKVDGQWKIHTIEIR
  protease stability score: 2.22

## DEEEEFQRELVKLLVEWVHTGDWEHISKYADPHVKVHVDGRDSIGREEMRKTLKRFSDLLGADHIRFEHVRIIDGRVTIHSRVEYGDKEHHIIIQSSKIDGRWYLHSVDIR
  protease stability score: 0.995

## DEEEEFYEKMFRLWFELLLTGDESTLIKLLDPHVRIDFNGRELIGWFYLSHFMREFRHRFDHVEIIIRRVTVIDGVARSDLELRVNINGKDHTVKTEVHIRVVNGRMKSLEFHIK
  protease stability score: 0.965
